{"source": "patent US20240101716A1", "key": {"[1]": {"target": "SIRPα-His protein (UniProt P78324)", "test": "competition ELISA, SIRPα-His binding to coated CD47-Fc"}, "[2]": {"target": "SIRP-α expressed on cells (UniProt P78324)", "test": "FACS binding test on SIRP-a cell line, Geom.Mean; unit from the axis log(nm)"}, "[3]": {"target": "recombinant human SIRPα variant 1 protein (human) (UniProt P78324)", "sequence (P78324 31-370, change not shown)": "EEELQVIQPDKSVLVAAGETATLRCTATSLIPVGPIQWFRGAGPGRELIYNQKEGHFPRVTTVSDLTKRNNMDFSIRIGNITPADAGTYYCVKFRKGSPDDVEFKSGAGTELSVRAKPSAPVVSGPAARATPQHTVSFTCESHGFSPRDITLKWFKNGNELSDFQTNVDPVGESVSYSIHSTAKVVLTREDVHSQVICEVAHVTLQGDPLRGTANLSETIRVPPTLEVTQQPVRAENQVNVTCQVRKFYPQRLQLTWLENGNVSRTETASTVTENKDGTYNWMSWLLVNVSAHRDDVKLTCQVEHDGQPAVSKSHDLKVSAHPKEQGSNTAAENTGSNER", "test": "SPR Biacore 8K, antibody captured, antigen analyte"}, "[4]": {"target": "SIRPα (blocking assay of Example 11) (UniProt P78324)", "test": "blocking of the CD47/SIRPα interaction, ratio 665 nm/615 nm against antibody concentration"}, "[5]": {"target": "SIRPα-His protein (UniProt P78324)", "test": "competition ELISA: SIRPα-His binding to coated CD47-Fc in the presence of the antibody, OD450"}, "[6]": {"target": "recombinant human SIRPα variant 1 protein (human) (UniProt P78324)", "test": "ELISA on coated recombinant human SIRPα v1, OD450"}}, "data": [{"binder": "HSP210-02-hz52 (antibody, V domains shown) VH: QVQLVQSGAEVKKPGASVKVSCKASGFNFEDTYMHWVRQAPGQGLEWMGRIDPADADTKYNPKFQDRVTITVDTSTNTAYMELSSLRSEDTAVYYCVRGNYVNWGQGTTVTVSS VL: EIVLTQSPGTLSLSPGERATLSCRASSSVSSSYLYWYQQKPGQAPRLLIYSTSNLASGIPDRFSGSGSGTDYTLTISRLEPEDAAVYFCHQWYSYPRTFGGGTKVEIK", "values": [{"measurement": "IC50", "setting": "[1]", "result": 110, "unit": "pM"}, {"measurement": "EC50", "setting": "[2]", "result": 540, "unit": "pM"}, {"measurement": "Kd", "setting": "[3]", "result": 423, "unit": "pM"}, {"measurement": "koff", "setting": "[3]", "result": 0.000298, "unit": "s⁻¹"}, {"measurement": "kon", "setting": "[3]", "result": 704000, "unit": "M⁻¹ s⁻¹"}, {"measurement": "IC50 (read off the curve)", "setting": "[4]", "result": 100, "unit": "pM"}]}, {"binder": "HSP210-02-hz42 (antibody, V domains shown) VH: QVQLVQSGAEVKKPGASVKVSCKASGFNFEDTYMHWVRQAPGQGLEWMGRIDPAEGDTKYNPKFQDRVTITVDTSTNTAYMELSSLRSEDTAVYYCVRGNYVNWGQGTTVTVSS VL: EIVLTQSPGTLSLSPGERATLSCRASSSVSSSYLYWYQQKPGQAPRLLIYSTSNLASGIPDRFSGSGSGTDYTLTISRLEPEDAAVYFCHQWYSYPRTFGGGTKVEIK", "values": [{"measurement": "IC50", "setting": "[1]", "result": 120, "unit": "pM"}]}, {"binder": "HSP210-02-hz32 (antibody, V domains shown) VH: QVQLVQSGAEVKKPGASVKVSCKASGFNFEDTYMHWVRQAPGQGLEWMGRIDPADGDTKYNPKFQDRVTITVDTSTNTAYMELSSLRSEDTAVYYCVRGNYVNWGQGTTVTVSS VL: EIVLTQSPGTLSLSPGERATLSCRASSSVSSSYLYWYQQKPGQAPRLLIYSTSNLASGIPDRFSGSGSGTDYTLTISRLEPEDAAVYFCHQWYSYPRTFGGGTKVEIK", "values": [{"measurement": "IC50", "setting": "[1]", "result": 110, "unit": "pM"}]}, {"binder": "HSP210-02-hz22 (antibody, V domains shown) VH: QVQLVQSGAEVKKPGASVKVSCKASGFNFEDTYMHWVRQAPGQGLEWMGRIDPADGDTKYNPKFQDRVTMTVDTSTNTAYMELSSLRSEDTAVYYCVRGNYVNWGQGTTVTVSS VL: EIVLTQSPGTLSLSPGERATLSCRASSSVSSSYLYWYQQKPGQAPRLLIYSTSNLASGIPDRFSGSGSGTDYTLTISRLEPEDAAVYFCHQWYSYPRTFGGGTKVEIK", "values": [{"measurement": "IC50", "setting": "[1]", "result": 92, "unit": "pM"}]}, {"binder": "HSP210-03-hz51 (antibody, V domains shown) VH: QVQLVQSGAEVKKPGSSVKVSCKASGYTFTSNYIHWVRQAPGQGLEWMGWIYPGDADTNYNQKFNGRVTLTADKSTSTAYMELSSLRSEDTAVYYCAINYGGIWFAYWGQGTLVTVSS VL: DIQMTQSPSSLSASVGDRVTITCQASQDIGNKLIWYQQKPGKAPKLLIYYVTNLPGGVPSRFSGSGSGTDFTLTISSLQPEDFATYYCLQYKQNPLTFGQGTKLEIK", "values": [{"measurement": "EC50", "setting": "[2]", "result": 417, "unit": "pM"}, {"measurement": "Kd", "setting": "[3]", "result": 999, "unit": "pM"}, {"measurement": "koff", "setting": "[3]", "result": 0.000804, "unit": "s⁻¹"}, {"measurement": "kon", "setting": "[3]", "result": 805000, "unit": "M⁻¹ s⁻¹"}, {"measurement": "IC50 (read off the curve)", "setting": "[4]", "result": 100, "unit": "pM"}]}, {"binder": "HSP210-03-hz52 (antibody, V domains shown) VH: QVQLVQSGAEVKKPGSSVKVSCKASGYTFTSNYIHWVRQAPGQGLEWMGWIYPGDADTNYNQKFNGRVTLTADKSTSTAYMELSSLRSEDTAVYYCAINYGGIWFAYWGQGTLVTVSS VL: DIQMTQSPSSLSASVGDRVTITCQASQDIGNKLIWFQQKPGKAPKLLIHYVTNLPGGVPSRFSGSRSGSDYTLTISSLQPEDFATYYCLQYKQNPLTFGQGTKLEIK", "values": [{"measurement": "IC50", "setting": "[1]", "result": 130, "unit": "pM"}]}, {"binder": "HSP210-03-hz42 (antibody, V domains shown) VH: QVQLVQSGAEVKKPGSSVKVSCKASGYTFTSNYIHWVRQAPGQGLEWMGWIYPGEGDTNYNQKFNGRVTLTADKSTSTAYMELSSLRSEDTAVYYCAINYGGIWFAYWGQGTLVTVSS VL: DIQMTQSPSSLSASVGDRVTITCQASQDIGNKLIWFQQKPGKAPKLLIHYVTNLPGGVPSRFSGSRSGSDYTLTISSLQPEDFATYYCLQYKQNPLTFGQGTKLEIK", "values": [{"measurement": "IC50", "setting": "[1]", "result": 130, "unit": "pM"}]}, {"binder": "HSP210-03-hz22 (antibody, V domains shown) VH: QVQLVQSGAEVKKPGSSVKVSCKASGYTFTSNYIHWVRQAPGQGLEWMGWIYPGDGDTNYNQKFNGRVTITADKSTSTAYMELSSLRSEDTAVYYCAINYGGIWFAYWGQGTLVTVSS VL: DIQMTQSPSSLSASVGDRVTITCQASQDIGNKLIWFQQKPGKAPKLLIHYVTNLPGGVPSRFSGSRSGSDYTLTISSLQPEDFATYYCLQYKQNPLTFGQGTKLEIK", "values": [{"measurement": "IC50", "setting": "[1]", "result": 160, "unit": "pM"}]}, {"binder": "HSP210-03-hz32 (antibody, V domains shown) VH: QVQLVQSGAEVKKPGSSVKVSCKASGYTFTSNYIHWVRQAPGQGLEWMGWIYPGDGDTNYNQKFNGRVTLTADKSTSTAYMELSSLRSEDTAVYYCAINYGGIWFAYWGQGTLVTVSS VL: DIQMTQSPSSLSASVGDRVTITCQASQDIGNKLIWFQQKPGKAPKLLIHYVTNLPGGVPSRFSGSRSGSDYTLTISSLQPEDFATYYCLQYKQNPLTFGQGTKLEIK", "values": [{"measurement": "IC50", "setting": "[1]", "result": 145, "unit": "pM"}]}, {"binder": "300A6A6 (antibody, V domains shown) VH: QVQLQQSGTELVKPGSSVKISCKASGYTFTSNYIHWIRQQPGNGLEWIGWIYPGDGDTNYNQKFNGKATLTADKSSSTAYMQLSSLTSEDYAVYFCAINYGGIWFAYWGQGTLVTVSS VL: DIQMTQSPSSMSASLGDRVTITCQASQDIGNKLIWFQQKPGKSPRLMIHYVTNLPGGVPLRFSGSRSGSDYSLTISSLESEDMADYYCLQYKQNPLTFGSGTKLEIK", "values": [{"measurement": "Kd", "setting": "[3]", "result": 1130, "unit": "pM"}, {"measurement": "koff", "setting": "[3]", "result": 0.000148, "unit": "s⁻¹"}, {"measurement": "kon", "setting": "[3]", "result": 131000, "unit": "M⁻¹ s⁻¹"}, {"measurement": "IC50", "setting": "[5]", "result": 0.383, "unit": "µg/mL"}, {"measurement": "EC50", "setting": "[6]", "result": 0.0121, "unit": "µg/mL"}]}, {"binder": "HSP210-03-Chi (antibody, V domains shown) VH: QVQLQQSGTELVKPGSSVKISCKASGYTFTSNYIHWIRQQPGNGLEWIGWIYPGDGDTNYNQKFNGKATLTADKSSSTAYMQLSSLTSEDYAVYFCAINYGGIWFAYWGQGTLVTVSS VL: DIQMTQSPSSMSASLGDRVTITCQASQDIGNKLIWFQQKPGKSPRLMIHYVTNLPGGVPLRFSGSRSGSDYSLTISSLESEDMADYYCLQYKQNPLTFGSGTKLEIK", "values": [{"measurement": "IC50", "setting": "[1]", "result": 140, "unit": "pM"}]}, {"binder": "248G3F6 (antibody, V domains shown) VH: EVQLQQSGAELVKPGASVKLSCTASGFNFEDTYMHWVKQRPDQGLEWIGRIDPADGDTKYNPKFQDKATITVDTSSNTAYLQLSSLTSEDTAVYYCVRGNYVNWGQGTTLTVSS VL: QIVLIQSPAIMSASPGERVTLTCRASSSVSSSYLYWYQQKPGSSPKLWIYSTSNLASGVPARFSGSGSGTSYSLTISSMEAEDAASYFCHQWYSYPRTFGGGTKLEIK", "values": [{"measurement": "Kd", "setting": "[3]", "result": 2000, "unit": "pM"}, {"measurement": "koff", "setting": "[3]", "result": 0.000374, "unit": "s⁻¹"}, {"measurement": "kon", "setting": "[3]", "result": 187000, "unit": "M⁻¹ s⁻¹"}, {"measurement": "IC50", "setting": "[5]", "result": 0.356, "unit": "µg/mL"}, {"measurement": "EC50", "setting": "[6]", "result": 0.0182, "unit": "µg/mL"}]}, {"binder": "HSP210-02-Chi (antibody, V domains shown) VH: EVQLQQSGAELVKPGASVKLSCTASGFNFEDTYMHWVKQRPDQGLEWIGRIDPADGDTKYNPKFQDKATITVDTSSNTAYLQLSSLTSEDTAVYYCVRGNYVNWGQGTTLTVSS VL: QIVLIQSPAIMSASPGERVTLTCRASSSVSSSYLYWYQQKPGSSPKLWIYSTSNLASGVPARFSGSGSGTSYSLTISSMEAEDAASYFCHQWYSYPRTFGGGTKLEIK", "values": [{"measurement": "IC50", "setting": "[1]", "result": 140, "unit": "pM"}]}, {"binder": "HSP210-01-hz22 (antibody, V domains shown) VH: QVQLQESGPGLVKPSETLSLTCTFSGFSLNTYDIGMGWIRQPPGKGLEWIGHIWWNDREYYNSALQSRVTISKDTSKTQVSLKLSSVTAADTAVYYCVRIDYFGSGQAWFTYWGQGTLVTVSS VL: EIVLTQSPGTLSLSPGERATLSCSSSSTISSTYLHWYQQKPGQAPRLLISGTSNLASGIPDRFSGSGSGTDYTLTISRLEPEDVAVYYCQQGSRIPFTFGQGTKLEIK", "values": [{"measurement": "IC50", "setting": "[1]", "result": 210, "unit": "pM"}]}, {"binder": "HSP210-01-hz32 (antibody, V domains shown) VH: QVQLQESGPGLVKPSETLSLTCTFSGFSLNTYDIGMGWIRQPPGKGLEWIAHIWWNDREYYNSALQSRVTISKDTSKTQVSLKLSSVTAADTAVYYCVRIDYFGSGQAWFTYWGQGTLVTVSS VL: EIVLTQSPGTLSLSPGERATLSCSSSSTISSTYLHWYQQKPGQAPRLLISGTSNLASGIPDRFSGSGSGTDYTLTISRLEPEDVAVYYCQQGSRIPFTFGQGTKLEIK", "values": [{"measurement": "IC50", "setting": "[1]", "result": 160, "unit": "pM"}]}, {"binder": "HSP210-01-hz61 (antibody, V domains shown) VH: QVQLQESGPGLVKPSETLSLTCTFSGFSLNTYDIGMGWIRQPPGKGLEWIAHIWWNDREYYNPALQSRVTISKDTSKTQVSLKLSSVTAADTAVYYCVRIDYFGSGQAWFTYWGQGTLVTVSS VL: EIVLTQSPGTLSLSPGERATLSCSSSSTISSTYLHWYQQKPGQAPRLLIYGTSNLASGIPDRFSGSGSGTDFTLTISRLEPEDFAVYYCQQGSRIPFTFGQGTKLEIK", "values": [{"measurement": "IC50", "setting": "[1]", "result": 210, "unit": "pM"}]}, {"binder": "HSP210-01-hz62 (antibody, V domains shown) VH: QVQLQESGPGLVKPSETLSLTCTFSGFSLNTYDIGMGWIRQPPGKGLEWIAHIWWNDREYYNPALQSRVTISKDTSKTQVSLKLSSVTAADTAVYYCVRIDYFGSGQAWFTYWGQGTLVTVSS VL: EIVLTQSPGTLSLSPGERATLSCSSSSTISSTYLHWYQQKPGQAPRLLISGTSNLASGIPDRFSGSGSGTDYTLTISRLEPEDVAVYYCQQGSRIPFTFGQGTKLEIK", "values": [{"measurement": "IC50", "setting": "[1]", "result": 160, "unit": "pM"}]}, {"binder": "HSP210-01-hz52 (antibody, V domains shown) VH: QVQLQESGPGLVKPSETLSLTCTFSGFSLNTYDIGMGWIRQPPGKGLEWIAHIWWNDREYYSSALQSRVTISKDTSKTQVSLKLSSVTAADTAVYYCVRIDYFGSGQAWFTYWGQGTLVTVSS VL: EIVLTQSPGTLSLSPGERATLSCSSSSTISSTYLHWYQQKPGQAPRLLISGTSNLASGIPDRFSGSGSGTDYTLTISRLEPEDVAVYYCQQGSRIPFTFGQGTKLEIK", "values": [{"measurement": "IC50", "setting": "[1]", "result": 230, "unit": "pM"}]}]}
